{"source": "patent US20230295297A1", "key": {"[1]": {"target": "TREM2 protein of the 'Percent APOE binding' column of Table 9B", "assay": "TREM2 binding to APOE with antibody"}, "[2]": {"target": "mouse TREM2 on cells (mouse) (UniProt Q99NH8)", "sequence (Q99NH8 19-227 limits assumed)": "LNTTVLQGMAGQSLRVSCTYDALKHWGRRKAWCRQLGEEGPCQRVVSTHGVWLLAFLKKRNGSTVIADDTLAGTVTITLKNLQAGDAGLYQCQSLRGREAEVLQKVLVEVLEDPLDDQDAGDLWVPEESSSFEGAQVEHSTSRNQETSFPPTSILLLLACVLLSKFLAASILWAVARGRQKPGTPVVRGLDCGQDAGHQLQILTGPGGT", "assay": "FACS, WT mouse macrophages"}, "[3]": {"target": "mouse TREM2 on cells (mouse) (UniProt Q99NH8)", "assay": "FACS, BWZmT2 cells; isotype control"}, "[4]": {"target": "human TREM2 on primary cells (human) (UniProt Q9NZC2)", "sequence (Q9NZC2 19-230)": "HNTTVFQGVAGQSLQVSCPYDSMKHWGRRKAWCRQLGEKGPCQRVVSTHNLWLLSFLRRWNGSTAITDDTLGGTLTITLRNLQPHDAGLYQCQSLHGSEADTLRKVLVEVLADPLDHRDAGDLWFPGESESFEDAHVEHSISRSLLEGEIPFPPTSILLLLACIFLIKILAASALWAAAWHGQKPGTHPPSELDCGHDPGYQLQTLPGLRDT", "assay": "FACS, primary hMAC; isotype control"}, "[5]": {"target": "TREM2 protein of the 'Percent APOE binding' column of Table 9B", "assay": "TREM2 binding to APOE with isotype control"}, "[6]": {"target": "recombinant human TREM2-DAP12 fusion protein expressed on cells (human)", "sequence (chain, as listed by the source limits assumed, form in doubt)": "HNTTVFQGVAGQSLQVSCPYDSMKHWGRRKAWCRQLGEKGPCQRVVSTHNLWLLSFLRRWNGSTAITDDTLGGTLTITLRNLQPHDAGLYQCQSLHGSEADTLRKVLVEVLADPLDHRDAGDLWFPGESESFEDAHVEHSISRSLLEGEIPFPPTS", "assay": "FACS, HEKhT2 cells; isotype control"}, "[7]": {"target": "human TREM2 on primary cells (human) (UniProt Q9NZC2)", "assay": "FACS, primary hDC; isotype control"}, "[8]": {"target": "mouse TREM2 on cells (mouse) (UniProt Q99NH8)", "assay": "FACS, WT mouse macrophages; isotype control"}}, "data": [{"substance": "commercial anti-TREM2 antibody (R&D Cat #F7E57291)", "values": [{"measurement": "Percent APOE binding", "setting": "[1]", "value": 106, "unit": "%"}, {"measurement": "% Positive WT BMMACS", "setting": "[2]", "value": 13.1, "unit": "%"}]}, {"substance": "mouse IgG1 isotype control antibody", "values": [{"measurement": "MFI BWZmT2", "setting": "[3]", "value": 278, "unit": "MFI"}, {"measurement": "% Positive hMAC", "setting": "[4]", "value": 2.7, "unit": "%"}, {"measurement": "Percent APOE binding", "setting": "[5]", "value": 90.8, "unit": "%"}, {"measurement": "MFI HEKhT2", "setting": "[6]", "value": 16.3, "unit": "MFI"}, {"measurement": "% Positive hDC", "setting": "[7]", "value": 4.9, "unit": "%"}, {"measurement": "% Positive WT BMMACS", "setting": "[8]", "value": 0.574, "unit": "%"}]}, {"substance": "mouse IgG2a isotype control antibody", "values": [{"measurement": "% Positive hMAC", "setting": "[4]", "value": 7.9, "unit": "%"}, {"measurement": "MFI HEKhT2", "setting": "[6]", "value": 40.3, "unit": "MFI"}, {"measurement": "% Positive hDC", "setting": "[7]", "value": 7.3, "unit": "%"}]}, {"substance": "rat IgG1 isotype control antibody", "values": [{"measurement": "% Positive hMAC", "setting": "[4]", "value": 19.6, "unit": "%"}, {"measurement": "MFI HEKhT2", "setting": "[6]", "value": 544, "unit": "MFI"}, {"measurement": "% Positive hDC", "setting": "[7]", "value": 8.7, "unit": "%"}]}, {"substance": "mouse IgG2b isotype control antibody", "values": [{"measurement": "% Positive hMAC", "setting": "[4]", "value": 5.3, "unit": "%"}, {"measurement": "MFI HEKhT2", "setting": "[6]", "value": 13, "unit": "MFI"}, {"measurement": "% Positive hDC", "setting": "[7]", "value": 6.1, "unit": "%"}]}, {"substance": "mouse IgM isotype control antibody", "values": [{"measurement": "% Positive hMAC", "setting": "[4]", "value": 63.7, "unit": "%"}, {"measurement": "MFI HEKhT2", "setting": "[6]", "value": 124, "unit": "MFI"}, {"measurement": "% Positive hDC", "setting": "[7]", "value": 14.9, "unit": "%"}]}, {"substance": "rat IgG2b isotype control antibody", "values": [{"measurement": "% Positive hMAC", "setting": "[4]", "value": 0.9, "unit": "%"}, {"measurement": "Percent APOE binding", "setting": "[5]", "value": 102, "unit": "%"}, {"measurement": "MFI HEKhT2", "setting": "[6]", "value": 35, "unit": "MFI"}, {"measurement": "% Positive hDC", "setting": "[7]", "value": 0.3, "unit": "%"}]}, {"substance": "rat IgG2a isotype control antibody", "values": [{"measurement": "% Positive hMAC", "setting": "[4]", "value": 10.4, "unit": "%"}, {"measurement": "MFI HEKhT2", "setting": "[6]", "value": 33, "unit": "MFI"}, {"measurement": "% Positive hDC", "setting": "[7]", "value": 6.2, "unit": "%"}]}]}
